What all share (format): cell-based, human
Test [1] has as its system cell lines which express ICAM-R. Description: Homotypic aggregation assay, cell line panel. To be noted: presence and absence of PMA. How it is done: In order to determine whether ICAM-R is involved in homotypic cell adhesion, aggregation assays were performed with a panel of cell lines which express ICAM-R including T lymphoblastoid cell lines (SupT1, CEM, Molt 4, Hut 78, Jurkat, SKW3), B lymphoblastoid cells lines (Jijoye, Raji), monocytic cell lines (U937, HL60), a myelogenous cell line (KG-1) and the erythroleukemia cell line K562. To determine the function of the ICAM-R molecule, the cells were incubated with various antibodies before aggregation was assayed. Anti-ICAM-R supernatants produced by hybridomas ICR-2.1, ICR-1.1, ICR-4.2, and ICR-3.1 were used as well as antibody preparations known to block aggregation through a β2 integrin pathway: TS1/18 (ATCC HB203) specific for the CD18 molecule, the β-subunit of LFA-1; TS1/22 (ATCC HB202) specific for the CD11a molecule, the α-chain of LFA-1; and LM2/1 (ATCC HB204) specific for the CD11b molecule, the α-subunit of MAC-1. Purified anti-ICAM-1 antibody and hybridoma supernatant directed against the a-chain of the VLA-4 molecule (hybridoma clone 163H, Michael Longenecker, Alberta, Canada) were used as controls.
Aggregation assays were done in duplicate, with and without addition of PMA (50 ng/ml). 3×10^5 cells in RPMI 1640 medium with 10% fetal calf serum were added in a flat-bottomed 96-well microtest plate. […]

The next test has as its system CEM cells. The test is described as follows: Detergent resistance (cytoskeleton association) assay, CEM. How it is done: PBL or washed CEM cell suspensions ([…]) were dispensed into Falcon 12×75 mm tubes in ice-cold PBS-5% FBS, pelleted, and resuspended in 50 μl of FITC-conjugated anti-ICAM-R monoclonal antibody 26E3D-1 or 26I10E-2 adjusted to saturating concentration in the same buffer. Antibody binding was permitted to proceed for 30 minutes on ice, afterwhich unbound antibody was removed by pelleting cells which had first been resuspended in 1 ml of […] through an underlaid cushion (0.7 ml) of neat (undiluted) FBS.
For groups stained with FITC-conjugated monoclonal antibody only, the 1 ml suspension was divided into two equal parts, each of which was separately underlaid with FBS, centrifuged, and the supernatant removed by aspiration. Cell pellets were then resuspended in 200 ul of control buffer (13 mM Tris pH 8.0, 150 mM NaCl, 2 mM MgCl2, 2 mM EGTA, 2% FBS, 2.5 ug/ml aprotinin, 1 mM PMSF, 10 mM iodoacetamide) or detergent buffer [0.5% NP-40 (v/v) (US Biochemical, Cleveland, Ohio) in control buffer] and held for 20 minutes at room temperature, or overnight at 4° C., prior to FACS analysis. For groups in which cell surface-bound monoclonal antibody was crosslinked with secondary antibodies, following the first antibody staining step, washed cell pellets were resuspended in 50 ul of FITC-goat anti-mouse IgG (Sigma) diluted 1:100 in PBS-5% FCS and incubated for 30 minutes on ice. […]

Another test concerns PBMC. The test is described as follows: Anti-CD3 stimulated PBMC aggregation. To be noted: immobilized antibody.
Test [2] relates to CD4+ CD45RO+ / CD45RA+ T cells and plastic adherent cells. The test is described as follows: SEA proliferation of memory or resting T cells with accessory cells. To be noted: immobilized antibody 3 hours. From the text: Because both T cells and accessory cells express high levels of ICAM-R, the inhibition of cell-cell contact dependent T cell activation during the response to SEA by ICR-1.1 could be mediated by ICR-1.1 binding to T cells, accessory cells or both. Additionally, because ICAM-R and ICAM-1 differ markedly in their expression on nonactivated T cells, it is possible that anti-ICAM-1 and anti-ICAM-R may inhibit the SEA response by targeting T cell subsets in different states of activation. Because the role of ICAM-R may differ in naive and memory cells, the ability of anti-ICAM-R antibodies to inhibit SEA induced proliferation of CD4^+ CD45RO^+ (“memory”) cells, or CD4^+ CD45RA^+ (“resting”) cells was tested. […] nonadherent PBMC (10^7 cells/ml) were incubated for 1 hour at 4° C. with a cocktail of antibodies (1μg/ml each) containing anti-CD8, anti-CD19, anti-CD11b, anti-HLA-DR (Becton Dickinson) and either anti-CD45RO (Amac) (to obtain CD45RA^+ CD4^+ cells), or anti-CD45RA (Amac) (to obtain CD45RO^+ CD4^+ cells) in coating medium. The cell suspension was washed twice with coating medium to remove unbound antibody and incubated with goat anti-mouse IgG coated magnetic beads. Cells bound to magnetic beads were then removed from the suspension using a strong magnet. […] Two hundred thousand purified memory T cells, resting T cells or plastic adherent cells were incubated on immobilized ICR-1.1, anti-ICAM-1 antibody LB-2 or anti-HLA-I antibody p10.1 (10 μg/ml) (Gerald Nepom, Virginia Mason Research Center, Seattle, Wash.) for 3 hours. The antibody treated memory or resting T cells were removed to clean wells and admixed with 2×10^4 plastic adherent cells. Antibody treated accessory cells were admixed with either untreated memory T cells or untreated resting T-cells. Each reconstituted culture was then stimulated with SEA (10 pg/ml). […]

B1: ICR-1.1: anti-ICAM-R monoclonal antibody, IgG2a, domain 1, ATCC HB 11053 (antibody, V domains shown)
VH: QVQLQQSGAELAKPGASVKMSCKASGYTFTVYWMHWVKQRPGQGLEWIGYINPNTDYTEYNQRFQDKATLTADKSSSTAYMQLSSLTSEDSAVYYCARWGGNSYGLDYWGQGTSVTVSS
VL: QIVLTQSPALMSASPGEKVTMTCSASSSVSYIYWYQQKPRSSPKPWIYLTSNLASGVPARFSGSGSGASYSLTISIMEAEDAATYYCQQWKSIPLTFGAGTKLELK
As to B1, the “stimulation of homotypic cell-cell aggregation” value in test [1] is on record as “stimulated homotypic cell-cell aggregation”. Moreover, the “greater increase in detergent resistance, crosslinked antibody” value with CEM cells (CEM) was 2-3 fold. For the same molecule, in the test with CEM cells (FITC-conjugated antibody, similar in PBL), the “ICAM-R association with cytoskeleton (detergent resistance), antibody alone” value was “negligible”. Besides, in the test on PBMC, the “inhibition of anti-CD3 stimulated aggregation” value is approximately 100%. Besides, in test [2], the “CD45RA+ cell proliferation, pretreatment of adherent cells” value was “modest inhibition of CD45RA^+ cell proliferation” and the “SEA response, pretreatment of CD45RA+ T cells (FIG. 14)” value is given as “did not affect SEA responses”. In addition, the “SEA proliferation, pretreatment of T cells or accessory cells (FIG. 13)” value in test [2] (versus p10.1 control) is listed as “blocked proliferative responses to SEA”.

These data come from US20040248211A1, “ICAM-related protein” (priority 1992, published 2004).
